Data from the supplement of paper PMC11246515.
± gives the standard deviation of the averaged measurements.

Assay: total protein half-life in vivo (active degradation + dilution); higher = more stable protein
[1] = E. coli NCM3722 delta-clpP delta-lon delta-hslV, growth: N-lim chemostat, doubling time 6 h
[2] = E. coli NCM3722 delta-clpP, growth: N-lim chemostat, doubling time 6 h
[3] = E. coli NCM3722 delta-hslV, growth: N-lim chemostat, doubling time 6 h
[4] = E. coli NCM3722 delta-lon, growth: N-lim chemostat, doubling time 6 h
[5] = E. coli NCM3722 delta-smpB, growth: N-lim chemostat, doubling time 6 h
[6] = wild type E. coli NCM3722, growth: C-lim chemostat, doubling time 3 h
[7] = wild type E. coli NCM3722, growth: C-lim chemostat, doubling time 6 h
[8] = wild type E. coli NCM3722, growth: C-lim chemostat, doubling time 12 h
[9] = wild type E. coli NCM3722, growth: N-lim chemostat, doubling time 6 h
[10] = wild type E. coli NCM3722, growth: N-lim chemostat, doubling time 12 h
[11] = wild type E. coli NCM3722, growth: P-lim chemostat, doubling time 6 h
[12] = wild type E. coli NCM3722, growth: P-lim chemostat, doubling time 12 h

| Sequence | total protein half-life in vivo [1] | total protein half-life in vivo [2] | total protein half-life in vivo [3] | total protein half-life in vivo [4] | total protein half-life in vivo [5] | total protein half-life in vivo [6] | total protein half-life in vivo [7] | total protein half-life in vivo [8] | total protein half-life in vivo [9] | total protein half-life in vivo [10] | total protein half-life in vivo [11] | total protein half-life in vivo [12] |
| --- | --- | --- | --- | --- | --- | --- | --- | --- | --- | --- | --- | --- |
| MTRPVTLSEPHFSQHTLNKYASLMAQGNGYLGLRASHEEDYTRQTRGMYLAGLYHRAGKGEINELVNLPDVVGMEIAINGEVFSLSHEAWQRELDFASGELRRNVVWRTSNGSGYTIASRRFVSADQLPLIALEITITPLDADASVLISTGIDATQTNHGRQHLDETQVRVFGQHLMQGSYTTQDGRSDVAISCCCKVSGDVQQCYTAKERRLLQHTSAQLHAGETMTLQKLVWIDWRDDRQAALDEWGSASLRQLEMCAQQSYDQLLAASTENWRQWWQKRRITVNGGEAHDQQALDYALYHLRIMTPAHDERSSIAAKGLTGEGYKGHVFWDTEVFLLPFHLFSDPTVARSLLRYRWHNLPGAQEKARRNGWQGALFPWESARSGEEETPEFAAINIRTGLRQKVASAQAEHHLVADIAWAVIQYWQTTGDESFIAHEGMALLLETAKFWISRAVRVNDRLEIHDVIGPDEYTEHVNNNAYTSYMARYNVQQALNIARQFGCSDDAFIHRAEMFLKELWMPEIQPDGVLPQDDSFMAKPAINLAKYKAAAGKQTILLDYSRAEVNEMQILKQADVVMLNYMLPEQFSAASCLANLQFYEPRTIHDSSLSKAIHGIVAARCGLLTQSYQFWREGTEIDLGADPHSCDDGIHAAATGAIWLGAIQGFAGVSVRDGELHLNPALPEQWQQLSFPLFWQGCELQVTLDAQRIAIRTSAPVSLRLNGQLITVAEESVFCLGDFILPFNGTATKHQEDE | 5.63 h |  |  |  |  |  |  |  |  |  |  |  |
| MTSGLERLSNLLSKKDSVFVSDLLREAKVNELDETLSTTRLNHLIDKGYERITLQLDLGGESPGYLEKDKHYREADAALLNVIYPTNLSKINTRRKEQV | 4.54 h |  |  |  |  |  |  |  |  |  |  |  |
| MTSLYLASGSPRRQELLAQLGVTFERIVTGIEEQRQPQESAQQYVVRLAREKARAGVAQTAKDLPVLGADTIVILNGEVLEKPRDAEHAAQMLRKLSGQTHQVMTAVALADSQHILDCLVVTDVTFRTLTDEDIAGYVASDEPLDKAGAYGIQGLGGCFVRKINGSYHAVVGLPLVETYELLSNFNALREKRDKHDG | 4.55 ± 0.58 h | 3.38 ± 0.24 h | 3.17 ± 0.25 h | 3.02 h | 3.26 ± 0.49 h | 3.2 ± 0.29 h | 5.629 ± 0.034 h | 8.84 ± 0.45 h | 3.15 ± 0.4 h | 4.52 h | 5.41 h | 11.9 ± 1.7 h |
| MTTFHSLTVAKVESETRDAVTITFAVPQPLQEAYRFRPGQHLTLKASFDGEELRRCYSICRSYLPGEISVAVKAIEGGRFSRYAREHIRQGMTLEVMVPQGHFGYQPQAERQGRYLAIAAGSGITPMLAIIATTLQTEPESQFTLIYGNRTSQSMMFRQALADLKDKYPQRLQLLCIFSQETLDSDLLHGRIDGEKLQSLGASLINFRLYDEAFICGPAAMMDDAETALKALGMPDKTIHLERFNTPGTRVKRSVNVQSDGQKVTVRQDGRDREIVLNADDESILDAALRQGADLPYACKGGVCATCKCKVLRGKVAMETNYSLEPDELAAGYVLSCQALPLTSDVVVDFDAKGMA | 4.66 ± 0.67 h |  |  |  |  |  |  |  |  |  |  |  |
| MTTHLVWFRQDLRLHDNLALAAACRNSSARVLALYIATPRQWATHNMSPRQAELINAQLNGLQIALAEKGIPLLFREVDDFVASVEIVKQVCAENSVTHLFYNYQYEVNERARDVEVERALRNVVCEGFDDSVILPPGAVMTGNHEMYKVFTPFKNAWLKRLREGMPECVAAPKVRSSGSIEPSPSITLNYPRQSFDTAHFPVEEKAAIAQLRQFCQNGAGEYEQQRDFPAVEGTSRLSASLATGGLSPRQCLHRLLAEQPQALDGGAGSVWLNELIWREFYRHLITYHPSLCKHRPFIAWTDRVQWQSNPAHLQAWQEGKTGYPIVDAAMRQLNSTGWMHNRLRMITASFLVKDLLIDWREGERYFMSQLIDGDLAANNGGWQWAASTGTDAAPYFRIFNPTTQGEKFDHEGEFIRQWLPELRDVPGKVVHEPWKWAQKAGVTLDYPQPIVEHKEARVQTLAAYEAARKGK | 5.62 ± 0.31 h | 6.1 ± 1 h | 6.2 ± 0.4 h | 6.08 ± 0.8 h | 5.35 ± 0.34 h | 3.23 ± 0.22 h | 6.25 ± 0.49 h | 11.533 ± 0.011 h | 5.49 ± 0.16 h | 11.1 ± 0.21 h | 6.17 ± 0.76 h | 11.62 ± 0.014 h |
| MTTILKHLPVGQRIGIAFSGGLDTSAALLWMRQKGAVPYAYTANLGQPDEEDYDAIPRRAMEYGAENARLIDCRKQLVAEGIAAIQCGAFHNTTGGLTYFNTTPLGRAVTGTMLVAAMKEDGVNIWGDGSTYKGNDIERFYRYGLLTNAELQIYKPWLDTDFIDELGGRHEMSEFMIACGFDYKMSVEKAYSTDSNMLGATHEAKDLEYLNSSVKIVNPIMGVKFWDESVKIPAEEVTVRFEQGHPVALNGKTFSDDVEMMLEANRIGGRHGLGMSDQIENRIIEAKSRGIYEAPGMALLHIAYERLLTGIHNEDTIEQYHAHGRQLGRLLYQGRWFDSQALMLRDSLQRWVASQITGEVTLELRRGNDYSILNTVSENLTYKPERLTMEKGDSVFSPDDRIGQLTMRNLDITDTREKLFGYAKTGLLSSSAASGVPQVENLENKGQ [P0A6E4] | 4.11 ± 0.6 h | 3.3 ± 0.15 h | 3.2 ± 0.23 h | 3.89 ± 0.34 h | 3.26 ± 0.15 h | 3.17 ± 0.06 h | 5.27 ± 0.081 h | 9.91 ± 0.69 h | 3.39 ± 0.12 h | 4.82 ± 0.071 h | 5.69 ± 0.15 h | 10.7 ± 0.7 h |
| MTTIVSVRRNGHVVIAGDGQATLGNTVMKGNVKKVRRLYNDKVIAGFAGGTADAFTLFELFERKLEMHQGHLVKAAVELAKDWRTDRMLRKLEALLAVADETASLIITGNGDVVQPENDLIAIGSGGPYAQAAARALLENTELSAREIAEKALDIAGDICIYTNHFHTIEELSYKA [P0A7B8] |  | 5.42 ± 0.062 h |  | 6.49 ± 0.19 h | 5.3 ± 0.5 h | 2.72 ± 0.33 h | 6.23 ± 0.091 h | 10.2 ± 1.4 h | 5.716 ± 0.023 h | 9.85 ± 1 h | 5.74 ± 0.23 h |  |
| MTTKRKPYVRPMTSTWWKKLPFYRFYMLREGTAVPAVWFSIELIFGLFALKNGPEAWAGFVDFLQNPVIVIINLITLAAALLHTKTWFELAPKAANIIVKDEKMGPEPIIKSLWAVTVVATIVILFVALYW [P0A8Q0] | 5.7 ± 0.4 h |  | 5.78 ± 0.49 h | 6.06 ± 0.09 h | 6.13 ± 0.39 h | 2.81 ± 0.031 h | 5.55 ± 0.079 h | 10.9 ± 0.46 h | 5.63 ± 0.14 h | 11.3 ± 1.9 h | 5.09 ± 0.12 h | 12.5 ± 0.33 h |
| MTTLAIDIGGTKLAAALIGADGQIRDRRELPTPASQTPEALRDALSALVSPLQAHAQRVAIASTGIIRDGSLLALNPHNLGGLLHFPLVKTLEQLTNLPTIAINDAQAAAWAEFQALDGDITDMVFITVSTGVGGGVVSGCKLLTGPGGLAGHIGHTLADPHGPVCGCGRTGCVEAIASGRGIAAAAQGELAGADAKTIFTRAGQGDEQAQQLIHRSARTLARLIADIKATTDCQCVVVGGSVGLAEGYLALVETYLAQEPAAFHVDLLAAHYRHDAGLLGAALLAQGEKL | 4.69 ± 0.65 h | 4.78 ± 0.069 h | 4.19 ± 0.69 h | 3.56 ± 1.9 h | 4.85 ± 0.36 h | 2.57 ± 0.17 h | 5 ± 0.45 h | 9.07 ± 0.36 h | 5.02 ± 0.21 h | 5.13 ± 2.2 h |  | 10.5 ± 0.22 h |
| MTTLLNPYFGEFGGMYVPQILMPALRQLEEAFVSAQKDPEFQAQFNDLLKNYAGRPTALTKCQNITAGTNTTLYLKREDLLHGGAHKTNQVLGQALLAKRMGKTEIIAETGAGQHGVASALASALLGLKCRIYMGAKDVERQSPNVFRMRLMGAEVIPVHSGSATLKDACNEALRDWSGSYETAHYMLGTAAGPHPYPTIVREFQRMIGEETKAQILEREGRLPDAVIACVGGGSNAIGMFADFINETNVGLIGVEPGGHGIETGEHGAPLKHGRVGIYFGMKAPMMQTEDGQIEESYSISAGLDFPSVGPQHAYLNSTGRADYVSITDDEALEAFKTLCLHEGIIPALESSHALAHALKMMRENPDKEQLLVVNLSGRGDKDIFTVHDILKARGEI [P0A879] | 3.87 ± 0.32 h | 3.49 ± 0.14 h | 3.48 ± 0.17 h | 3.69 ± 0.27 h | 3.78 ± 0.36 h | 2.95 ± 0.1 h | 5.28 ± 0.27 h | 9.833 ± 0.072 h | 3.54 ± 0.042 h | 5.38 ± 0.17 h | 6.4 ± 1.5 h | 11.5 ± 1.2 h |
| MTTLTARPEAITFDPQQSALIVVDMQNAYATPGGYLDLAGFDVSTTRPVIANIQTAVTAARAAGMLIIWFQNGWDEQYVEAGGPGSPNFHKSNALKTMRKQPQLQGKLLAKGSWDYQLVDELVPQPGDIVLPKPRYSGFFNTPLDSILRSRGIRHLVFTGIATNVCVESTLRDGFFLEYFGVVLEDATHQAGPKFAQKAALFNIETFFGWVSDVETFCDALSPTSFAHIA | 4.33 ± 0.13 h | 1.41 ± 0.23 h | 0.334 h | 0.503 ± 0.025 h | 0.441 h |  |  |  |  | 0.812 h |  |  |
| MTTLTLVLTAVGSVLLLLFLVMKARMHAFLALMVVSMGAGLFSGMPLDKIAATMEKGMGGTLGFLAVVVALGAMFGKILHETGAVDQIAVKMLKSFGHSRAHYAIGLAGLVCALPLFFEVAIVLLISVAFSMARHTGTNLVKLVIPLFAGVAAAAAFLVPGPAPMLLASQMNADFGWMILIGLCAAIPGMIIAGPLWGNFISRYVELHIPDDISEPHLGEGKMPSFGFSLSLILLPLVLVGLKTIAARFVPEGSTAYEWFEFIGHPFTAILVACLVAIYGLAMRQGMPKDKVMEICGHALQPAGIILLVIGAGGVFKQVLVDSGVGPALGEALTGMGLPIAITCFVLAAAVRIIQGSATVACLTAVGLVMPVIEQLNYSGAQMAALSICIAGGSIVVSHVNDAGFWLFGKFTGATEAETLKTWTMMETILGTVGAIVGMIAFQLLS [P0AC96] |  | 6.49 h | 5.93 h |  |  |  |  |  | 5.18 h |  |  | 12.9 h |
